One assay concerns the target T1, B8_BP-LATY.
T1 construct: positions 13-16 worked out from the printed Y16; source: E. coli BL21(DE3*), purified (Ni-NTA, SEC); not shown: His tag, C-terminal, kept
The experiment in a line: BLI; Octet RED96; His-tagged and Avi-tagged minibinders immobilised on Ni-NTA and streptavidin sensor tips, dipped into wells with different concentrations of integrin; association 900 s, dissociation 1200 s. The settings on record: both partners purified.

Another assay deals with T2, B8_BP_dslf.
T2 construct: de novo designed RGD miniprotein with redesigned, extended β-loop and the motif MAVY in place of LXX(L/I); For BLI His-tagged (Ni-NTA tips) or N-terminally Avi-tagged, biotinylated (streptavidin tips); The methods of model building name a design model 'B8_BP2_dslf'; also called MAVY; source: E. coli BL21(DE3*), purified (Ni-NTA, SEC); not shown: His tag, C-terminal, kept
The description is as above. As to conditions: both partners purified.

T1 sequence (main, as listed by the source): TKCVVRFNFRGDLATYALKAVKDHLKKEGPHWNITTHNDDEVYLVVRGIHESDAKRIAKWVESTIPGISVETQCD

B1: human integrin αvβ8 (soluble, construct not stated) (complex)
chain 1: FNLDVDSPAEYSGPEGSYFGFAVDFFVPSASSRMFLLVGAPKANTTQPGIVEGGQVLKCDWSSTRRCQPIEFDATGNRDYAKDDPLEFKSHQWFGASVRSKQDKILACAPLYHWRTEMKQEREPVGTCFLQDGTKTVEYAPCRSQDIDADGQGFCQGGFSIDFTKADRVLLGGPGSFYWQGQLISDQVAEIVSKYDPNVYSIKYNNQLATRTAQAIFDDSYLGYSVAVGDFNGDGIDDFVSGVPRAARTLGMVYIYDGKNMSSLYNFTGEQMAAYFGFSVAATDINGDDYADVFIGAPLFMDRGSDGKLQEVGQVSVSLQRASGDFQTTKLNGFEVFARFGSAIAPLGDLDQDGFNDIAIAAPYGGEDKKGIVYIFNGRSTGLNAVPSQILEGQWAARSGCPPSFGYSMKGATDIDKNGYPDLIVGAFGVDRAILYRARPVITVNAGLEVYPSILNQDNKTCSLPGTALKVSCFNVRFCLKADGKGVLPRKLNFQVELLLDKLKQKGAIRRALFLYSRSPSHSKNMTISRGGLMQCEELIAYLRDESEFRDKLTPITIFMEYRLDYRTAADTTGLQPILNQFTPANISRQAHILL
chain 2: EDNRCASSNAASCARCLALGPECGWCVQEDFISGGSRSERCDIVSNLISKGCSVDSIEYPSVHVIIPTENEINTQVTPGEVSIQLRPGAEANFMLKVHPLKKYPVDLYYLVDVSASMHNNIEKLNSVGNDLSRKMAFFSRDFRLGFGSYVDKTVSPYISIHPERIHNQCSDYNLDCMPPHGYIHVLSLTENITEFEKAVHRQKISGNIDTPEGGFDAMLQAAVCESHIGWRKEAKRLLLVMTDQTSHLALDSKLAGIVCPNDGNCHLKNNVYVKSTTMEHPSLGQLSEKLIDNNINVIFAVQGKQFHWYKDLLPLLPGTIAGEIESKAANLNNLVVEAYQKLISEVKVQVENQVQGIYFNITAICPDGSRKPGMEGCRNVTSNDEVLFNVTVTMKKCDVTGGKNYAIIKPIGFNETAKIHI
Broadly, the Kd is the constant that tells how readily two partners part at equilibrium. A lower Kd goes with tighter binding. As to B1, the equilibrium dissociation constant (Kd) was determined as 0.5 nM in the assay with B8_BP-LATY and 1.9 nM with B8_BP_dslf.

Values taken from publication PMC10500007, “De novo design of highly selective miniprotein inhibitors of integrins αvβ6 and αvβ8” (Nature Communications, 2023).
